Measurements as given in the supplement of paper PMC11780869.

System: Bacillus subtilis
Assay: cleaved RNA product abundance (RNA/gDNA barcode ratio) relative to median wild-type variant (ratio to wild type); higher = more accumulation of the downstream cleavage product
Details: cleavage site: cggR-gapA (positions -7 to +36 mutated)
In short: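 Oligos with a 9% error rate were used to build barcoded, mutagenized RNase Y cleavage-site windows within truncated aprE or tetM reporter mRNAs, which were integrated into the B. subtilis chromosome. Cultures were grown in LB at 37°C between OD600 0.0003 and 0.3. Cleaved RNA was gel-selected, reverse transcribed and barcode-sequenced, as were genomic DNA barcodes, and UMIs were collapsed. Cleaved product abundance is the scaled RNA:gDNA barcode ratio, with the median construct carrying the unmutated site as reference.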

[1] = experiment (reporter, strain, medium): exp 2b: truncated aprE reporter, strain BJT200
[2] = experiment (reporter, strain, medium): exp 4a: truncated aprE reporter, strain BJT201 with 2% xylose (RNase J1 expressed)

Sequence | cleaved RNA product abundance [1] | cleaved RNA product abundance [2] | cleaved RNA product abundance (experiment (reporter, strain, medium): exp 6: tetM reporter, strain 168)
ACAGACGAAGGAGCCGCAAAGAAGTTATTAAGGGATAAATTATCCCTCAATATAAATATCTCTCACTTATTTAAA | 1.07 | 1.03 | –
ACAGACGAAGGAGCCGCAAAGAAGTTATTAAGGGATAACTAATCCCTCAATATAAATATCTCTCACTTATTTAAA | – | 0.57 | –
ACAGACGAAGGAGCCGCAAAGAAGTTATTAAGGGATAAGTAATCCCTCAATATAAATATCTCTCACTTATTTAAA | 0.555 | 0.785 | –
ACAGACGAAGGAGCCGCAAAGAAGTTATTAAGGGATAATTAATCCCTCAATATAAATATCTCTCACTTATTTAAA | 1.13 | 0.759 | –
ACAGACGAAGGAGCCGCAAAGAAGTTATTAAGGGATAGATAATCCCTCAATATAAATATCTCTCACTTATTTAAA | – | 0.791 | –
ACAGACGAAGGAGCCGCAAAGAAGTTATTAAGGGATATATAATCCCTCAATATAAATATCTCTCACTTATTTAAA | – | 0.738 | –
ACAGACGAAGGAGCCGCAAAGAAGTTATTAAGGGATCAAAAATCCCTCAATATAAATATCTCTCACTTATTTAAA | 0.804 | 1.17 | –
ACAGACGAAGGAGCCGCAAAGAAGTTATTAAGGGATCAACAATCCCTCAATATAAATATCTCTCACTTATTTAAA | 1 | 0.962 | –
ACAGACGAAGGAGCCGCAAAGAAGTTATTAAGGGATCAATAAACCCTCAATATAAATATCTCTCACTTATTTAAA | 0.518 | 0.429 | –
ACAGACGAAGGAGCCGCAAAGAAGTTATTAAGGGATCAATAACCCCTCAATATAAATATCTCTCACTTATTTAAA | – | 0.561 | –
ACAGACGAAGGAGCCGCAAAGAAGTTATTAAGGGATCAATAATACCTAAATATAAATATCTCTCACTTATTTAAA | – | 0.0917 | –
ACAGACGAAGGAGCCGCAAAGAAGTTATTAAGGGATCAATAATACCTCAATATAAATATCTCTCACTTATTTAAA | – | 0.146 | –
ACAGACGAAGGAGCCGCAAAGAAGTTATTAAGGGATCAATAATCACTCAATATAAATATCTCTCACTTATTTAAA | 0.0917 | 0.0833 | –
ACAGACGAAGGAGCCGCAAAGAAGTTATTAAGGGATCAATAATCCATCAATATAAATATCTCTCACTTATTTAAA | – | 0.312 | –
ACAGACGAAGGAGCCGCAAAGAAGTTATTAAGGGATCAATAATCCCACAATATAAATATCTCTCACTTATTTAAA | 0.192 | 0.208 | –
ACAGACGAAGGAGCCGCAAAGAAGTTATTAAGGGATCAATAATCCCTAAATATAAATATCTCTCACTTATTTAAA | 0.551 | 0.657 | –
ACAGACGAAGGAGCCGCAAAGAAGTTATTAAGGGATCAATAATCCCTCAAAATAAATATCTCTCACTTATTTAAA | 0.214 | 0.315 | –
ACAGACGAAGGAGCCGCAAAGAAGTTATTAAGGGATCAATAATCCCTCAACATAAATATCTCTCACTTATTTAAA | – | 0.258 | –
ACAGACGAAGGAGCCGCAAAGAAGTTATTAAGGGATCAATAATCCCTCAATATAAATAACTCTCACTTATTTAAA | – | 0.687 | –
ACAGACGAAGGAGCCGCAAAGAAGTTATTAAGGGATCAATAATCCCTCAATATAAATACCTCTCACTTATTTAAA | 0.479 | 0.36 | –
ACAGACGAAGGAGCCGCAAAGAAGTTATTAAGGGATCAATAATCCCTCAATATAAATATCTCTCACTTATTTAAA | 0.832 | 0.878 | 0.996
ACAGACGAAGGAGCCGCAAAGAAGTTATTAAGGGATCAATAATCCCTCAATATAAATCTCTCTCACTTATTTAAA | – | 0.706 | –
ACAGACGAAGGAGCCGCAAAGAAGTTATTAAGGGATCAATAATCCCTCAATATAAATTTCTCTCACTTATTTAAA | – | 0.645 | –
ACAGACGAAGGAGCCGCAAAGAAGTTATTAAGGGATCAATAATCCCTCAATATAATTATCTCTCACTTATTTAAA | 0.468 | – | –
ACAGACGAAGGAGCCGCAAAGAAGTTATTAAGGGATCAATAATCCCTCAATATACATATCTCTCACTTATTTAAA | – | 0.736 | –
ACAGACGAAGGAGCCGCAAAGAAGTTATTAAGGGATCAATAATCCCTCAATATAGATATCTCTCACTTATTTAAA | 0.534 | – | –
ACAGACGAAGGAGCCGCAAAGAAGTTATTAAGGGATCAATAATCCCTCAATTTAAATATCTCTCACTTATTTAAA | 0.197 | – | –

Sequence | cleaved RNA product abundance [1] | cleaved RNA product abundance [2] | cleaved RNA product abundance (experiment (reporter, strain, medium): exp 6: tetM reporter, strain 168)
ACAGACGAAGGAGCCGCAAAGAAGTTATTAAGGGATCAATAATCCCTCACTATAAATATCTCTCACTTATTTAAA | – | 0.224 | –
ACAGACGAAGGAGCCGCAAAGAAGTTATTAAGGGATCAATAATCCCTCATTATAAATATCTCTCACTTATTTAAA | – | 0.213 | –
ACAGACGAAGGAGCCGCAAAGAAGTTATTAAGGGATCAATAATCCCTGAATATAAATATCTCTCACTTATTTAAA | 0.512 | 0.61 | –
ACAGACGAAGGAGCCGCAAAGAAGTTATTAAGGGATCAATAATCCCTTAATATAAATATCTCTCACTTATTTAAA | 1.02 | 0.486 | –
ACAGACGAAGGAGCCGCAAAGAAGTTATTAAGGGATCAATAATCCTTCAATATAAATATCTCTCACTTATTTAAA | – | 0.353 | –
ACAGACGAAGGAGCCGCAAAGAAGTTATTAAGGGATCAATAATCGCTCAATATAAATATCTCTCACTTATTTAAA | – | 0.0655 | –
ACAGACGAAGGAGCCGCAAAGAAGTTATTAAGGGATCAATAATCTATCAATATAAATATCTCTCACTTATTTAAA | – | 0.209 | –
ACAGACGAAGGAGCCGCAAAGAAGTTATTAAGGGATCAATAATCTCTCAATATAAATATCTCTCACTTATTTAAA | 0.312 | 0.342 | –
ACAGACGAAGGAGCCGCAAAGAAGTTATTAAGGGATCAATAATGCCTCAATATAAATATCTCTCACTTATTTAAA | 0.0953 | 0.138 | –
ACAGACGAAGGAGCCGCAAAGAAGTTATTAAGGGATCAATAATTCCTCAATATAAATATCTCTCACTTATTTAAA | – | 0.22 | –
ACAGACGAAGGAGCCGCAAAGAAGTTATTAAGGGATCAATACTCCCTCAATATAAATATCTCTCACTTATTTAAA | – | 0.579 | –
ACAGACGAAGGAGCCGCAAAGAAGTTATTAAGGGATCAATAGTCCCTCAATATAAATATCTCTCACTTATTTAAA | – | 0.828 | –
ACAGACGAAGGAGCCGCAAAGAAGTTATTAAGGGATCAATATTCCCTCAATATAAATATCTCTCACTTATTTAAA | 0.709 | – | –
ACAGACGAAGGAGCCGCAAAGAAGTTATTAAGGGATCAATGATCCCTCAATATAAATATCTCTCACTTATTTAAA | – | 1.15 | –
ACAGACGAAGGAGCCGCAAAGAAGTTATTAAGGGATCAATTATCCCTCAATATAAATATCTCTCACTTATTTAAA | – | 1.23 | –
ACAGACGAAGGAGCCGCAAAGAAGTTATTAAGGGATCACTAATCCCTCAATATAAATATCTCTCACTTATTTAAA | – | 1.19 | –
ACAGACGAAGGAGCCGCAAAGAAGTTATTAAGGGATCATTAATCCCTCAATATAAATATCTCTCACTTATTTAAA | – | 1.08 | –
ACAGACGAAGGAGCCGCAAAGAAGTTATTAAGGGATCCATAATCCCTCAATATAAATATCTCTCACTTATTTAAA | – | 0.481 | –
ACAGACGAAGGAGCCGCAAAGAAGTTATTAAGGGATCGATAATCCCTCAATATAAATATCTCTCACTTATTTAAA | 0.652 | 0.722 | –
ACAGACGAAGGAGCCGCAAAGAAGTTATTAAGGGATCTATAATCCCTCAATATAAATATCTCTCACTTATTTAAA | – | 0.87 | –
ACAGACGAAGGAGCCGCAAAGAAGTTATTAAGGGATGAAAAAACCCTCAATATAAATATCTCTCACTTATTTAAA | 0.411 | 0.642 | –
ACAGACGAAGGAGCCGCAAAGAAGTTATTAAGGGATGAAAAACCCCTCAATATAAATATCTCTCACTTATTTAAA | 0.477 | 0.485 | –
ACAGACGAAGGAGCCGCAAAGAAGTTATTAAGGGATGAAAAATACCTCAATATAAATATCTCTCACTTATTTAAA | 0.114 | 0.169 | –
ACAGACGAAGGAGCCGCAAAGAAGTTATTAAGGGATGAAAAATCACTCAATATAAATATCTCTCACTTATTTAAA | 0.113 | 0.101 | –
ACAGACGAAGGAGCCGCAAAGAAGTTATTAAGGGATGAAAAATCCATCAATATAAATATCTCTCACTTATTTAAA | 0.141 | 0.223 | –
ACAGACGAAGGAGCCGCAAAGAAGTTATTAAGGGATGAAAAATCCCCCAATATAAATATCTCTCACTTATTTAAA | – | 0.184 | –
